# “Also recorded” adds a separate entry of the source. Like-named read-outs stand apart in the source and are kept apart here. Ends that are not written are not given here.
# B1: ENO3: recombinant full-length human ENO3 peptide, SEQ ID NO: 1, identified in bacteria-primed ASC conditioned media (protein, listed as Homo sapiens)
# chain: MAMQKIFAREILDSRGNPTVEVDLHTAKGRFRAAVPSGASTGIYEALELRDGDKGRYLGKGVLKAVENINNTLGPALLQKKLSVVDQEKVDKFMIELDGTENKSKFGANAILGVSLAVCKAGAAEKGVPLYRHIADLAGNPDLILPVPAFNVINGGSHAGNKLAMQEFMILPVGASSFKEAMRIGAEVYHHLKGVIKAKYGKDATNVGDEGGFAPNILENNEALELLKTAIQAAGYPDKVVIGMDVAASEFYRNGKYDLDFKSPDDPARHITGEKLGELYKSFIKNYPVVSIEDPFDQDDWATWTSFLSGVNIQIVGDDLTVTNPKRIAQAVEKKACNCLLLKVNQIGSVTESIQACKLAQSNGWGVMVSHRSGETEDTFIADLVVGLCTGQIKTGAPCRSERLAKYNQLMRIEEALGDKAIFAGRKFRNPKAK
# B2: SPARCL1: recombinant full-length human SPARCL1 peptide, SEQ ID NO: 2, identified in bacteria-primed ASC conditioned media (protein, listed as Homo sapiens)
# chain: MKTGLFFLCLLGTAAAIPTNARLLSDHSKPTAETVAPDNTAIPSLRAEAEENEKETAVSTEDDSHHKAEKSSVLKSKEESHEQSAEQGKSSSQELGLKDQEDSDGHLSVNLEYAPTEGTLDIKEDMSEPQEKKLSENTDFLAPGVSSFTDSNQQESITKREENQEQPRNYSHHQLNRSSKHSQGLRDQGNQEQDPNISNGEEEEEKEPGEVGTHNDNQERKTELPREHANSKQEEDNTQSDDILEESDQPTQVSKMQEDEFDQGNQEQEDNSNAEMEEENASNVNKHIQETEWQSQEGKTGLEAISNHKETEEKTVSEALLMEPTDDGNTTPRNHGVDDDGDDDGDDGGTDGPRHSASDDYFIPSQAFLEAERAQSIAYHLKIEEQREKVHENENIGTTEPGEHQEAKKAENSSNEEETSSEGNMRVHAVDSCMSFQCKRGHICKADQQGKPHCVCQDPVTCPPTKPLDQVCGTDNQTYASSCHLFATKCRLEGTKKGHQLQLDYFGACKSIPTCTDFEVIQFPLRMRDWLKNILMQLYEANSEHAGYLNEKQRNKVKKIYLDEKRLLAGDHPIDLLLRDFKKNYHMYVYPVHWQFSELDQHPMDRVLTHSELAPLRASLVPMEHCITRFFEECDPNKDKHITLKEWGHCFGIKEEDIDENLLF
# What was measured:
# [1] = tested on: 3-day old P. aeruginosa (PA) biofilm; assay: Estimation of biofilm disruption (crystal violet staining); format: cell-based, Pseudomonas aeruginosa (ATCC 14213)
# Method: Biofilms were grown in cation adjusted MH2 broth for 72 hours in 96-well clear bottom polystyrene plates. The biofilm inoculum was prepared by subculturing overnight bacterial culture for 90 minutes until OD600 reaches ˜0.3-0.4. 200 μL of biofilm inoculum was aliquoted into each well of the 96-well plate. After 72 hours of static incubation at 37° C., the spent media was expelled, and the biofilms were treated with ASC-CM for 24 hours. […] Briefly, all the contents in the 96-well plates were removed and the wells were washed thrice with 1×PBS (Phosphate Buffer Solution) to remove the non-adherent planktonic bacteria. The attached biofilms were fixed with 95% methanol for 5 minutes. The wells were air-dried and stained with 0.1% crystal violet solution for 15 minutes at room temperature. The crystal violet solution was removed, and the wells were washed with water three times. The plates were again air-dried, and the stained biofilm was solubilized using 30% acetic acid. The absorbance of the biofilms were recorded at OD595 using Micro xMark™ Microplate Absorbance Spectrophotometer.
# [2] = tested on: P. aeruginosa (PA); format: cell-based, Pseudomonas aeruginosa (ATCC 14213); conditions: for minimum bactericidal concentration (MBC): PA; for minimum bactericidal concentration (MBC) / concentration required to significantly kill: MBC = lowest concentration killing ≥50% colonies vs media control
# Method: (§1) Examination of the potency of conditioned media obtained from adipose-derived mesenchymal stem cells (ASC-CM) and recombinant peptides against S. typhimurium, P. aeruginosa and S. aureus strains were performed by using the broth microdilution protocol from the Clinical and Laboratory Standards Institute (CLSI) guidelines (CLSI 2012). Briefly, five freshly plated bacteria colonies were grown in cation adjusted MH2 broth in a shaker incubator at 37° C., 220 RPM. Cells were grown to an optical density (OD600) of 0.20 using a Microplate Spectrophotometer. 100 μL of microbial culture containing ˜5×10^5 CFU/mL of bacteria in the respective broths were introduced into each well containing 100 μL of ASC-CM or peptides and incubated overnight at 37° C. Next, to check the bactericidal effects, 100 μL from each well was transferred and spread on sterile MH2 agar plates. The plates were incubated overnight at 37° C. and the number of colonies forming units (CFU) was observed the next day. Readings of bacteria grown in media without any treatments were normalized to 100% as media control. Minimum bactericidal concentration (MBC) was defined as the lowest peptide concentration (μM) required to kill ≥50% bacterial colonies compared to the media control.
# [3] = tested on: human keratinocytes; assay: 2-dimensional scratch assay; format: cell-based; conditions: compared to media control
# Method: Cell confluency of human keratinocytes were assessed in presence of peptides in a 2D scratch assay at each timepoint by applying an ImageJ plugin PHANTAST on phase contrast time lapse images. The rate of change of keratinocytes confluency was calculated by obtaining a best fit line across the confluency vs time plot as described in. The rate of change of confluence was used as a surrogate measure for speed of migrating keratinocytes.
# [4] = tested on: S. typhimurium (ST); assay: Anti-bacterial resistance evolution assay (serial passaging); format: cell-based; conditions: Salmonella enterica, 384 h, read-out: Minimum Inhibitory Concentration (MIC) after serial passaging
# Method: To determine the antibacterial effects of the ASC-CM or anti-bacterial peptides, intracellular ATP levels of the bacteria was determined by the ATP Determination Kit. As indicated in the antibacterial assay protocol, after overnight incubation of the ASC-CM or peptides with bacteria for a period of 24 hours, the culture was first spun to eliminate the extracellular ATP and other metabolic waste released from the dead bacteria. The bacterial pellet was resuspended in equivalent amount of water and the levels of intracellular ATP was calculated based on manufacturer's instructions.
# The resistance development of S. typhimurium (ST) strain was assessed by sequential passaging in the presence of sub-inhibitory concentrations of gentamicin or ASC-CM. Briefly, sequential passaging of S. typhimurium (ST) cells was done with full-strength, ½-strength, and ¼-strengths of ASC-CM or sub-inhibitory concentrations of gentamicin for a period of 4 weeks. The cells grown in sub-inhibitory strengths of either conditioned media (CM) or gentamicin were diluted to A600 nm (OD600) of 0.1 and serially passaged daily with the same concentrations for 4 weeks at 37° C. with agitation at 24 h intervals.
# [5] = tested on: S. aureus (SA); format: cell-based; conditions: for minimum bactericidal concentration (MBC) / concentration required to significantly kill: MBC = lowest concentration killing ≥50% colonies vs media control
# Method: as §1
# [6] = tested on: S. typhimurium (ST); assay: Antibacterial assay (CLSI broth microdilution, CFU counts); format: cell-based; conditions: for minimum bactericidal concentration (MBC) / concentration required to significantly kill: MBC = lowest concentration killing ≥50% colonies vs media control
# Method: as §1
# [7] = tested on: 3-day old S. typhimurium (ST) biofilm; assay: Estimation of biofilm disruption (crystal violet staining); format: cell-based, Salmonella typhimurium
# Method: Biofilms were grown in cation adjusted MH2 broth for 72 hours in 96-well clear bottom polystyrene plates. The biofilm inoculum was prepared by subculturing overnight bacterial culture for 90 minutes until OD600 reaches ˜0.3-0.4. 200 μL of biofilm inoculum was aliquoted into each well of the 96-well plate. After 72 hours of static incubation at 37° C., the spent media was expelled, and the biofilms were treated with ASC-CM for 24 hours. Post-treatment, the minimum biofilm inhibition concentration (MBIC) showing >50% reduction was determined by quantifying the levels of remaining attached biofilm, by crystal violet staining method. Briefly, all the contents in the 96-well plates were removed and the wells were washed thrice with 1×PBS (Phosphate Buffer Solution) to remove the non-adherent planktonic bacteria. The attached biofilms were fixed with 95% methanol for 5 minutes. The wells were air-dried and stained with 0.1% crystal violet solution for 15 minutes at room temperature. The crystal violet solution was removed, and the wells were washed with water three times. The plates were again air-dried, and the stained biofilm was solubilized using 30% acetic acid. The absorbance of the biofilms were recorded at OD595 using Micro xMark™ Microplate Absorbance Spectrophotometer.
# [8] = tested on: P. aeruginosa (PA); format: cell-based, Pseudomonas aeruginosa (ATCC 14213); conditions: FIG. 6H
# [9] = tested on: P. aeruginosa 14213; assay: Murine excisional wound infection model; format: in vivo, mice; conditions: wounds infected 24 hours, then ENO3 (0.2 nM) or SPARCL1 (0.067 nM) for 24 hours; vs untreated controls
# Method: The murine wound infection model was carried as described with minor modifications. […] Statistical analysis was performed by Student's t-test compared to untreated (PBS). All approved procedures were performed in accordance with the 218 Institutional Animal Care and Use Committee (IACUC) in Nanyang Technological 219 University, School of Biological Sciences (ARFSBS/NIEA0198Z) for murine wound infection model.
# The biofilm disruption ability of ENO3 and SPARCL1 in a murine excisional wound infection model. Excisional wounds were infected with ˜10^3 CFU of P. aeruginosa 14213 and treated for 24 hours to form the biofilms. […] Post-treatment, the wound region was excised, and the bacterial count were enumerated.
molecule,measurement,setting,value
"KQRNKVKKIYLDEKR [Peptide S1B, KQRNKVKKIYLDEKR]",biofilm disruption activity,[1]; S1B 6.25 μM-12.5 μM,more than 50%
same,minimum bactericidal concentration (MBC),[2],50000 nM
same,anti-bacterial activity (bacterial viability),[2]; S1B 50 μM,more than 50%
KVNQIGSVTESIQACKLAQSN [Peptide E1A],biofilm disruption activity,[1]; E1A 0.39 μM-1.56 μM,more than 50%
same,migration of human keratinocytes (rate of change of confluency),[3],increased migration of human keratinocytes; also recorded: higher migration speed
same,anti-bacterial activity (bacterial viability),[2]; E1A 0.39 μM,more than 50%
same,minimum bactericidal concentration (MBC),[2],390 nM
"CN[C@@H]1[C@@H](O)C(O[C@@H]2[C@@H](O)[C@H](O[C@H]3O[C@H]([C@@H](C)NC)CC[C@H]3N)[C@@H](N)C[C@H]2N)OC[C@]1(C)O (stereo partly drawn) [Gentamicin, (3R,4R,5R)-2-{[(1S,2S,3R,4S,6R)-4,6-diamino-3-{[(2R,3R,6S)-3-amino-6-[(1R)-1-(methylamino)ethyl]oxan-2-yl]oxy}-2-hydroxycyclohexyl]oxy}-5-methyl-4-(methylamino)oxane-3,5-diol, reference compound]",MIC,[4],1020 µg/mL
same,migration of human keratinocytes (rate of change of confluency),[3],significantly impaired; also recorded: no cell migration is observed
"HHKAEKSSVLKSKEESH [Peptide S1A, HHKAEKSSVLKSKEESH]",biofilm disruption activity,[1]; S1A 0.78 μM-3.125 μM,more than 50%
same,minimum bactericidal concentration (MBC),[2],100000 nM
same,anti-bacterial activity (bacterial viability),[2]; S1A 100 μM,more than 50%
B1,biofilm disruption,[1]; ENO3 about 0.0102 nM,~50%
same,bacterial reduction (CFU %),"[5]; ENO3 0.102 nM, FIG. 6C",more than 50%
same,minimum bactericidal concentration (MBC) / concentration required to significantly kill,[5],0.102 nM
same,MBC,"[5]; S. aureus, >99% reduction of viable colonies, FIG. 6G",2000 nM
same,MIC,"[5]; S. aureus, spot plate, FIG. 6G",2000 nM
same,bacterial reduction (CFU %),[6]; ENO3 2.04 nM,more than 50%
same,minimum bactericidal concentration (MBC) / concentration required to significantly kill,[6],2.04 nM
same,biofilm disruption,[7]; ENO3 about 0.0102 nM,more than 50%
same,migration of human keratinocytes (rate of change of confluency),[3],increased migration of human keratinocytes; also recorded: higher keratinocytes migration rate
same,bacterial reduction (CFU %),[2]; ENO3 0.204 nM,more than 50%
same,minimum bactericidal concentration (MBC) / concentration required to significantly kill,[2],0.204 nM
same,MBC,[8]; >99% reduction of viable colonies,6000 nM
same,MIC,[8]; spot plate,4000 nM
same,bacterial colonies (CFU counts) in excised wound,[9],reduction of bacterial colonies; also recorded: Reduction in bacterial colonies
B2,biofilm disruption,[1]; SPARCL1 about 0.00134 nM,~50%
same,minimum bactericidal concentration (MBC) / concentration required to significantly kill,[5],1000 nM
same,bacterial reduction (CFU %),"[5]; SPARCL1 1000 nM, FIG. 6F",more than 50%
same,minimum bactericidal concentration (MBC) / concentration required to significantly kill,[6],0.0067 nM
same,bacterial reduction (CFU %),[6]; SPARCL1 0.0067 nM,more than 50%
same,biofilm disruption,[7]; SPARCL1 about 0.00134 nM,~50%
same,migration of human keratinocytes (rate of change of confluency),[3],increased migration of human keratinocytes; also recorded: higher keratinocytes migration rate
same,minimum bactericidal concentration (MBC) / concentration required to significantly kill,[2],268 nM
same,bacterial reduction (CFU %),[2]; SPARCL1 268 nM,more than 50%
same,bacterial colonies (CFU counts) in excised wound,[9],reduction of bacterial colonies; also recorded: Reduction in bacterial colonies
